For one substance, stoichiometry N results are on record in publication PMC8428573.

Broadly, the stoichiometry N is the number of molecules, sites or subunits per partner or assembly.

The assay has as its target SARS-CoV-2 spike protein extracellular domain (residues 14 to 1209, S1 and S2 without the transmembrane domain) (SARS-CoV-2) (UniProt P0DTC2). The experiment in a line: SEC.

Turning to “SARS-CoV-2 spike protein extracellular domain (residues 14 to 1209, S1 and S2 without the transmembrane domain) (from UniProt P0DTC2 14-1209) (domain or fragment)”, the stoichiometry N was determined as 3.
